Where a chain is given by its changes, count along the chain named. Names may count otherwise.
T1: human CD155 (poliovirus receptor, PVR) on cells (U87/U87MG, HAP1) (human, UniProt P15151 21-417)
T1 construct: whole, on cells
T1 sequence (looked up): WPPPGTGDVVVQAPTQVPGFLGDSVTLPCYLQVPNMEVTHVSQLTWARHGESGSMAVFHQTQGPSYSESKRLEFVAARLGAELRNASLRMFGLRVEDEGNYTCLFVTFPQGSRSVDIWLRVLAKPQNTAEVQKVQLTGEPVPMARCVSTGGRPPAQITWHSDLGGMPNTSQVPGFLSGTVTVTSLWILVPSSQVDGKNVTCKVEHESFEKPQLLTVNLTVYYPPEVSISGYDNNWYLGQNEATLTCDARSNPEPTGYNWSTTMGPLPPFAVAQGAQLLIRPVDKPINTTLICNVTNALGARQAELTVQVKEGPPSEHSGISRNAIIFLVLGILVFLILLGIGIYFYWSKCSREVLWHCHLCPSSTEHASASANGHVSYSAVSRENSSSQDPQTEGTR

T2: poliovirus receptor (PVR, CD 155), form not stated (UniProt P15151 21-343, limits assumed)
T2 sequence (looked up): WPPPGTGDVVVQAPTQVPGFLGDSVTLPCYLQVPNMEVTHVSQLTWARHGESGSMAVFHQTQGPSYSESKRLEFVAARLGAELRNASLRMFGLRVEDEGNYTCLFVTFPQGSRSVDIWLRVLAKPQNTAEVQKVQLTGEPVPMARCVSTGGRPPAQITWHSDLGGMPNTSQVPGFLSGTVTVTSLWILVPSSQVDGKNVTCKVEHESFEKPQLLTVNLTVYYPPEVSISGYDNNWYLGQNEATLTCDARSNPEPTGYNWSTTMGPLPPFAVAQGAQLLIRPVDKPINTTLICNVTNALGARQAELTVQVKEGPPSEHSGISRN

B1: Ab825 (VH0/VK0), human IgG1 chimeric antibody (antibody, V domains shown)
VH: EVQLQQSGPELVKPGASVKISCKTSGYTFTEYTMHWVKQSHGKSLEWIGGIHPNNGDTSYNQRFKGKATLTVDKSSSTAYMELRSLTSEDSAVYYCARWTGDFDYWGQGTTLTVST
VL: DIVMTQSPKFMSTSVGDRVSVTCKASQNVGTNVAWYQQKPGQSPKALIYSASYRYSGVPDRFTGSGSGTDFTLTISNVQSEDLAEYFCQQYNSYPYTFGGGTKLEIK
notes: Murine variable regions in a human IgG1 chimeric antibody, derived from D171
B2: Ab825-VT680 conjugate (antibody, V domains shown)
VH: B1 VH
VL: B1 VL
notes: Ab825 conjugated to the fluorophore VT680; Neither the chain nor the site of conjugation is stated
B3: VH4 N54S D56E / VK3 N92E (antibody, V domains shown)
VH: EVQLVQSGSELKKPGASVKVSCKTSGYTFTEYTMHWVRQPHGKGLEWIGGIHPNSGETSYNQRFKGRVTITVDKSTSTAYMELSSLRSEDTAVYYCARWTGDFDYWGQGTLVTVSS
VL: DIQMTQSPSAMSASVGDRVTITCKASQNVGTNVAWYQQKPGQPPKALIYSASYRYSGVPDRFSGSGSGTDFTLTISSLQAEDLAEYFCQQYESYPYTFGQGTKLEIK
notes: Humanized variant of Ab825; also called antibody (vi)
B4: monoclonal antibody defined by SEQ ID 23 (LCVR) and SEQ ID 25 (HCVR) with a IgG4 (S241P) (antibody, V domains shown)
VH: B3 VH with E57G
VL: B3 VL with E92Q
notes: also called VH4 N54S D56G / Vk3 N92Q IgG4 (S241P)
B5: VH3 N54Q D56E / VK3 N92E (antibody, V domains shown)
VH: B3 VH with V20I, S55Q, I70L
VL: B3 VL
notes: Humanized variant of Ab825; also called antibody (iii)
B6: VH3 N54S D56G / VK2 N92Q (antibody, V domains shown)
VH: B3 VH with V20I, E57G, I70L
VL: B3 VL with Q3V, S63T, E92Q
notes: Humanized variant of Ab825; also called antibody (ii); Sample 2
B7: VH3 N54Q D56E / VK2 N92E (antibody, V domains shown)
VH: B3 VH with V20I, S55Q, I70L
VL: B3 VL with Q3V, S63T
notes: Humanized variant of Ab825; also called antibody (i)
B8: VH3 N54S D56G / VK3 N92Q (antibody, V domains shown)
VH: B3 VH with V20I, E57G, I70L
VL: B3 VL with E92Q
notes: Humanized variant of Ab825; also called antibody (iv); Sample 3
B9: VH4 N54Q D56E / VK3 N92E (antibody, V domains shown)
VH: B3 VH with S55Q
VL: B3 VL
notes: Humanized variant of Ab825; also called antibody (v)
B10: VH4 N54Q D56E / VK3 N92Q (antibody, V domains shown)
VH: B3 VH with S55Q
VL: B3 VL with E92Q
notes: Humanized variant of Ab825; also called antibody (viii)
B11: VH4 N54S D56G / VK3 N92E (antibody, V domains shown)
VH: B3 VH with E57G
VL: B3 VL
notes: Humanized variant of Ab825; also called antibody (vii)
B12: VH4 N54S D56G / VK3 N92Q (antibody, V domains shown)
VH: B3 VH with E57G
VL: B3 VL with E92Q
notes: Humanized variant of Ab825; also called antibody (ix); Sample 4

Assays:
[1] = target: T1, human CD155 (poliovirus receptor, PVR) …; test: cell binding on U-87 cells
[2] = target: T3, African green monkey PVR (CD 155) on Vero cells (African green monkey); test: cell binding on Vero cells
T3 construct: whole, on cells

[3] = target: T1, human CD155 (poliovirus receptor, PVR) …; test: cell binding on HAP-1 cells
[4] = target: T1, human CD155 (poliovirus receptor, PVR) …; test: in vivo fluorescence imaging of mice with U87MG tumors, 72 hours after injection
Method: Ab825-VT680 conjugate binds and accumulates in U87MG tumors In Vivo. The control mice were either untreated or treated with VT 680 dye alone.

[5] = target: T2, poliovirus receptor (PVR, CD 155), form …; test: surface plasmon resonance (Biacore)

T3 sequence (P32506 21-417): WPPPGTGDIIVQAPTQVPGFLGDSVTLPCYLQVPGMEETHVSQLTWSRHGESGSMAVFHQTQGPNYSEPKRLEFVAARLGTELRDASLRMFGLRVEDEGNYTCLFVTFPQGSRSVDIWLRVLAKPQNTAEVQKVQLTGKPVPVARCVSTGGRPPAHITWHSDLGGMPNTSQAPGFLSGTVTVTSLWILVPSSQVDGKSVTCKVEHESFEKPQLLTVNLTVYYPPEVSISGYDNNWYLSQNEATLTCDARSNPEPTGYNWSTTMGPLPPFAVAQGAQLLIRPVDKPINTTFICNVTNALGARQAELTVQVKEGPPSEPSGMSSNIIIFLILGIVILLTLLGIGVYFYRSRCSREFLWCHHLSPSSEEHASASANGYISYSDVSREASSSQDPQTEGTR

| Binder | EC50 [1] | EC50 [2] | EC50 [3] | binding result [4] | Kd [5] |
| --- | --- | --- | --- | --- | --- |
| B1 | 0.0869 µg/mL | 0.086 µg/mL | 0.0487 µg/mL |  |  |
| B2 |  |  |  | binds |  |
| B3 | 0.585 µg/mL | 0.236 µg/mL | 0.0984 µg/mL |  |  |
| B4 |  |  |  |  | 0.3 nM |
| B5 | 0.284 µg/mL | 0.273 µg/mL | 0.115 µg/mL |  |  |
| B6 | 0.069 µg/mL | 0.0615 µg/mL | 0.0383 µg/mL |  |  |
| B7 | 0.272 µg/mL | 0.226 µg/mL | 0.168 µg/mL |  |  |
| B8 | 0.0778 µg/mL | 0.0561 µg/mL | 0.0381 µg/mL |  |  |
| B9 | 0.551 µg/mL | 0.629 µg/mL | 0.097 µg/mL |  |  |
| B10 | 0.523 µg/mL | 0.48 µg/mL | 0.108 µg/mL |  |  |
| B11 | 0.191 µg/mL | 0.108 µg/mL | 0.0563 µg/mL |  |  |
| B12 | 0.0932 µg/mL | 0.0869 µg/mL | 0.0446 µg/mL |  |  |

— patent publication US20220056146A1 (TASRIF PHARMACEUTICAL, published 2022)
